Source: patent CN114075280A (DONGGUAN PENGZHI BIOTECHNOLOGY CO LTD, dated 2022)

Target: NGAL抗原 (中性粒细胞明胶酶相关载脂蛋白, Neutrophil gelatinase-associated lipocalin) (UniProt P80188 21-198)
Experiment: BLI, antibody captured on AMC sensor, NGAL in solution

Chain of NGAL抗原 (中性粒细胞明胶酶相关载脂蛋白, Neutrophil gelatinase-associated lipocalin) (P80188 21-198 limits assumed): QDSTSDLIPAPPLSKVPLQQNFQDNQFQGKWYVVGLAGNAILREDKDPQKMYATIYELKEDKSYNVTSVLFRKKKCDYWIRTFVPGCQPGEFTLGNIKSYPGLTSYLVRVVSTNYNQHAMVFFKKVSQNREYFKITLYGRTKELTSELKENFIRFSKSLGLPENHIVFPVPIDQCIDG

B1: 实施例1的抗NGAL单克隆抗体(WT) (antibody, V domains shown)
VH: QIQLKESGPGLVQPSETLSLTCTVSGASVTSYSISWVRQPSGKGPEWMGRMYYNGDTLYNSVIKSRLSISRDTSKNQVFLKMNSLQTDDTGTYYCARDPILPPYFDYWGQGVMVTVSS
VL: DVQMTQSPSYLAASPGESVSISCKFSKSLSNYVAWYQQKPGEAYKLLTHSASTVQSGIPSRISGSGSGTDFTLTIRSLEPEEFGLYYCQQHYENPYTFGAGTKLELKR
- Kd: 14.8 nM
- koff: 0.000313 s⁻¹
- kon: 21200 M⁻¹ s⁻¹
